# Measured values as given in publication PMC3665706 (Immunity, 2013).
# B1: N-terminal A20 protein bearing the OTU domain (residues 1-370), wild type (domain or fragment, UniProt P21580 1-370, looked up)
# chain: MAEQVLPQALYLSNMRKAVKIRERTPEDIFKPTNGIIHHFKTMHRYTLEMFRTCQFCPQFREIIHKALIDRNIQATLESQKKLNWCREVRKLVALKTNGDGNCLMHATSQYMWGVQDTDLVLRKALFSTLKETDTRNFKFRWQLESLKSQEFVETGLCYDTRNWNDEWDNLIKMASTDTPMARSGLQYNSLEEIHIFVLCNILRRPIIVISDKMLRSLESGSNFAPLKVGGIYLPLHWPAQECYRYPIVLGYDSHHFVPLVTLKDSGPEIRAVPLVNRDRGRFEDLKVHFLTDPENEMKEKLLKEYLMVIEIPVQGWDHGTTHLINAAKLDEANLPKEINLVDDYFELVQHEYKKWQENSEQGRREGHAQ
# Target: the molecule itself
# Assay: SEC-MALS
protein,measurement,value
B1,stoichiometry N,2
